Laboratory results published in patent US20210300974, “ARTIFICIAL TRANSCRIPTION FACTORS COMPRISING A SLIDING DOMAIN AND USES THEREOF” (THE BROAD INSTITUTE, INC., published 2021).
Primed or numbered codes have the meaning given here. Ends that are not written are not given here. TMR(3) = tetramethylrhodamine (TMR) label conjugated to the Cys side chain

T1: TMR-KRRR-NH2 (synthetic)
T1 sequence: KRRR

T2: TMR-RRRR (C-terminal carboxylate) (synthetic)
T2 sequence: RRRR

T3: TMR-KKKK-NH2 (synthetic)
T3 sequence: KKKK

T4: TMR-RRRK-NH2 (synthetic)
T4 sequence: RRRK

T5: TMR-RRRR-NH2 (synthetic)
T5 sequence: RRRR

T6: TMR-(RL)4-NH2 (synthetic)
T6 sequence: RRRR

T7: TMR-(CH2)5-KRRR-NH2 (synthetic)
T7 sequence: KRRR

T8: TMR-beta3(RRRK)-NH2 (synthetic)
T8 sequence: RRRK

T9: TMR-KRRR (C-terminal carboxylate) (synthetic)
T9 sequence: KRRR

T10: TMR-beta3(KRRR)-NH2 (synthetic)
T10 sequence: KRRR

T11: KRRRC(-TMR)-NH2 (synthetic)
T11 chain: KRRRC(TMR(3))-NH2


Assays:
TMR-KRRR-NH2 (synthetic) = test system: T1, TMR-KRRR-NH2 (synthetic); assay: FP; conditions: 2 mM NaCl, pH 7.4
[1] = test system: T2, TMR-RRRR (C-terminal carboxylate) (synthetic); assay: FP; conditions: CITED (Xiong et al); pH 7.4; cited from earlier work
TMR-KKKK-NH2 (synthetic) = test system: T3, TMR-KKKK-NH2 (synthetic); assay: FP; conditions: 2 mM NaCl, pH 7.4
TMR-RRRK-NH2 (synthetic) = test system: T4, TMR-RRRK-NH2 (synthetic); assay: FP; conditions: 2 mM NaCl, pH 7.4
TMR-RRRR-NH2 (synthetic) = test system: T5, TMR-RRRR-NH2 (synthetic); assay: FP; conditions: 2 mM NaCl, pH 7.4
[2] = test system: T6, TMR-(RL)4-NH2 (synthetic); assay: FP; conditions: 2 mM NaCl, pH 7.4
[3] = test system: T7, TMR-(CH2)5-KRRR-NH2 (synthetic); assay: FP; conditions: 2 mM NaCl, pH 7.4
[4] = test system: T8, TMR-beta3(RRRK)-NH2 (synthetic); assay: FP; conditions: 2 mM NaCl, pH 7.4
[5] = test system: TMR-(RS)4-NH2 (synthetic); assay: FP; conditions: 2 mM NaCl, pH 7.4
[6] = test system: T9, TMR-KRRR (C-terminal carboxylate) (synthetic); assay: FP; conditions: CITED (Xiong et al); pH 7.4; cited from earlier work
[7] = test system: T10, TMR-beta3(KRRR)-NH2 (synthetic); assay: FP; conditions: 2 mM NaCl, pH 7.4
KRRRC(-TMR)-NH2 = molecular target: T11, KRRRC(-TMR)-NH2; assay: FP; 2 mM NaCl, pH 7.4; text p253 states 46 ± 9; conditions: tags: TMR on Cys; free N-terminal amine; C-terminal amide

Row | Molecule | Kd (TMR-KRRR-NH2 (synthetic)) | Kd [1] | Kd (TMR-KKKK-NH2 (synthetic)) | Kd (TMR-RRRK-NH2 (synthetic)) | Kd (TMR-RRRR-NH2 (synthetic)) | Kd [2] | Kd [3] | Kd [4] | Kd [5] | Kd [6] | Kd [7] | Kd (KRRRC(-TMR)-NH2)
1 | GACGACTAGGACGACGACGAGGATGACGAC (double strand) [30-mer dsDNA] | 46 nM | 236 nM | 53 nM | 28 nM | 31 nM | 13 nM | 46 nM | 49 nM | 129 nM | 197 nM | 41 nM | –
2 | 30-mer dsDNA (dsDNA) DNA 1: GACGACTAGGACGACGACGAGGATGACGAC DNA 2: GTCGTCATCCTCGTCGTCGTCCTAGTCGTC | – | – | – | – | – | – | – | – | – | – | – | 54 nM
